Sequences and labels used below:
B1: c138 Fc dimer (polypeptide homodimer Fc fusion) (Fc fusion)
chain: HLPKPTLWAEPGSVITMDQPVTLRCQGGQETQQYRLYREKKTAPWITRIPQELVKKGQFPIPSITWEHAGRYRCYYGSDTRQWSASSDPLELVVTGVYIKPTLSAQPSPVVNSGGNVTLQCDSPFQADGFILCKEGEDDHPQCLNSQPHARGSSRAIFSVGPVSPSRRWRYRCYAYDSNSPYEWSLPSDLLELDVDGRMDPSRSVECPPCPAPPVAGPSVFLFPPKPKDTLMISRTPEVTCVVVDVSHEDPEVKFNWYVDGVEVHNAKTKPREEQYNSTYRVVSVLTVLHQDWLNGKEYKCKVSNKGLPSSIEKTISKAKGQPREPQVYTLPPSREEMTKNQVSLTCLVKGFYPSDIAVEWESNGQPENNYKTTPPVLDSDGSFFLYSKLTVDKSRWQQGNVFSCSVMHEGLHNHYTQKSLSLSPGK
B2: c64 Fc dimer (ILT Fc fusion homodimer) (Fc fusion)
chain: B1 chain with P124Q, F125V, Q126A, A127F
B3: c132 Fc dimer (ILT Fc fusion homodimer) (Fc fusion)
chain: B1 chain with Q33E, R81S, D139E, R170W, D177M, N179W

Changes are numbered by the printed parent chain.

The test addresses Class I pMHC on target cells (Mel 624). As to the kind of experiment: cell-based or functional assay.
The molecule B1 came in with an IC50 of inhibition of T cell activation (IFN-γ ELISPOT; Mel 624 target cells, MART-1 specific T cell clone) of 0.4 nM. In the case of B2 it was 2.3 nM.

In turn, B3 returned an IC50 of inhibition of T cell activation (IFN-γ ELISPOT; Mel 624 target cells, MART-1 specific T cell clone) of 0.45 nM.
